Here are results for three molecules from article PMC5415106, “Dpb11 may function with RPA and DNA to initiate DNA replication” (PLoS ONE, 2017).

T1: GST-Dpb11-wild-type (budding yeast, UniProt P47027 1-764)
T1 construct: Dpb11, budding yeast, full-length; also called Full-length Dpb11; wild-type Dpb11
T1 sequence (looked up): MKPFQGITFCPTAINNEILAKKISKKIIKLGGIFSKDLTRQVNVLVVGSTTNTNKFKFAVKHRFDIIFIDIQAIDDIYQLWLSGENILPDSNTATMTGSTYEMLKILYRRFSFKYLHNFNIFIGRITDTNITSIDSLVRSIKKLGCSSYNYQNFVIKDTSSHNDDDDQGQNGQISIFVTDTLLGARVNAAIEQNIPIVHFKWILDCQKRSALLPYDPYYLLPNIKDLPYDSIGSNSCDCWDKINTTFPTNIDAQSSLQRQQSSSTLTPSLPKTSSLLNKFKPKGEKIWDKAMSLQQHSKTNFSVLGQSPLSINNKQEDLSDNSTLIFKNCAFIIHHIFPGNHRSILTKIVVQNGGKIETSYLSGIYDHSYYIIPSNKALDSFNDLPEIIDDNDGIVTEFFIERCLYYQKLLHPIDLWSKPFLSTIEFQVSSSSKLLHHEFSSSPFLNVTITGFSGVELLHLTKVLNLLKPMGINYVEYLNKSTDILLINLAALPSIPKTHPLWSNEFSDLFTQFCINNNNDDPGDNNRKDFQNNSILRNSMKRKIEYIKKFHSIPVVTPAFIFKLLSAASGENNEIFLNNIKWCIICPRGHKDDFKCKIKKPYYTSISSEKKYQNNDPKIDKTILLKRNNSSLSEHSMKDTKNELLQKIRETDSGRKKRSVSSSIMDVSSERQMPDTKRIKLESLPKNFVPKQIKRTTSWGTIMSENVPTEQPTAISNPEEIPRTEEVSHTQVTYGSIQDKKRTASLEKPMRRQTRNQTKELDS

B1: PKA-Sld2T84D (natural protein, budding yeast, UniProt P34252 1-453, looked up)
chain: MYSFELDKLKIELKTWEHDFIDKNKREPTRDDIKSLRTVRQMYKQYSTLKKKQSLQRQKVDTQESVELPAHKKDHDEVVEIGPDPQVYGKAISIFDMNLSPIKPIYMTFTNNIDVNNDNSKTISNESSPRKTILLKSSPADRTLVAEPISSVKRQLNFQMLNASSTRTPTSSPCKNRNGKLVEIKKCSPTINPPLESGKPSGYYGPNSPLKLDEENIHLNISLNSSTKRRLQIAYPSLQKTPSKDQADISTSFSPSPLIRRPLTKSLIELAREHTEIVKEFGVLQEEDIEEEEEGEEGENGYDEKNHEDDFGLEDELIRPKVVKDIFQEDDDNDDSQAREDTFIRKRPKRRKVIRRLRDNDPETETAGFERDVHKELVKLKRRKVAEFLGSTSQISDTEFEHDPEASSGVVSSEQKPTAKRKGRKKYNLVSNNFRRLKLPKKNRFSNGRWGRR
modifications: 32P-phosphate on the artificial PKA site
notes: Sld2, budding yeast, with T84D; not shown: PKA site, N-terminal, kept
B2: Cdc45 (purified, radiolabelled) (natural protein, budding yeast, UniProt Q08032 1-650, looked up)
chain: MYYGISQFSEAYNKILRNSSSHSSCQLVIFVSCLNIDALCATKMLSLLFKKQLVQSQIVPIFGYSELRRHYSQLDDNINSLLLVGFGGVIDLEAFLEIDPQEYVIDTDEKSGEQSFRRDIYVLDAHRPWNLDNIFGSQIIQCFDDGTVDDTLGEQKEAYYKLLELDEESGDDELSGDENDNNGGDDEATDADEVTDEDEEDEDETISNKRGNSSIGPNDLSKRKQRKKQIHEYEGVLEEYYSQGTTVVNSISAQIYSLLSAIGETNLSNLWLNILGTTSLDIAYAQVYNRLYPLLQDEVKRLTPSSRNSVKTPDTLTLNIQPDYYLFLLRHSSLYDSFYYSNYVNAKLSLWNENGKKRLHKMFARMGIPLSTAQETWLYMDHSIKRELGIIFDKNLDRYGLQDIIRDGFVRTLGYRGSISASEFVEALTALLEVGNSTDKDSVKINNDNNDDTDGEEEEDNSAQKLTNLRKRWVSNFWLSWDALDDRKVELLNRGIQLAQDLQRAIFNTGVAILEKKLIKHLRIYRLCVLQDGPDLDLYRNPLTLLRLGNWLIECCAESEDKQLLPMVLASIDENTDTYLVAGLTPRYPRGLDTIHTKKPILNNFSMAFQQITAETDAKVRIDNFESSIIEIRREDLSPFLEKLTLSGLL
notes: Cdc45, budding yeast; The legend says only 'Similar to (A), except Cdc45 was used in place of Sld2T84D'; not shown: PKA tag (inferred from the radiolabelling method), N-terminal, kept
B3: GST-Dpb11-m1,2,3,5,ΔC (natural protein, budding yeast, UniProt P47027 1-615, looked up)
chain: MKPFQGITFCPTAINNEILAKKISKKIIKLGGIFSKDLTRQVNVLVVGSTTNTNKFKFAVKHRFDIIFIDIQAIDDIYQLWLSGENILPDSNTATMTGSTYEMLKILYRRFSFKYLHNFNIFIGRITDTNITSIDSLVRSIKKLGCSSYNYQNFVIKDTSSHNDDDDQGQNGQISIFVTDTLLGARVNAAIEQNIPIVHFKWILDCQKRSALLPYDPYYLLPNIKDLPYDSIGSNSCDCWDKINTTFPTNIDAQSSLQRQQSSSTLTPSLPKTSSLLNKFKPKGEKIWDKAMSLQQHSKTNFSVLGQSPLSINNKQEDLSDNSTLIFKNCAFIIHHIFPGNHRSILTKIVVQNGGKIETSYLSGIYDHSYYIIPSNKALDSFNDLPEIIDDNDGIVTEFFIERCLYYQKLLHPIDLWSKPFLSTIEFQVSSSSKLLHHEFSSSPFLNVTITGFSGVELLHLTEVLNLLEPMGINYVEYLNKSTDILLINLAALPSIPKTHPLWSNEFSDLFTQFCINNNNDDPGDNNRKDFQNNSILENSMKRKIEYIEKFHSIPVVTPAFIFKLLSAASGENNEIFLNNIKWCIICPRGHKDDFKCKIKKPYYTSISSEKKYQN
notes: Dpb11, budding yeast; ΔC = deletion of amino acids 616 to 764 (the C-terminus), so residues up to 615 remain; m1,2,3,5 = K463E, K469E, R538E, K549E in the BRCT4 motif; also called Dpb11-K463E, K469E, R538E,K549E, Δaa616-764; Dpb11-m1,2,3,4,ΔC (as printed once)

Holding throughout (experiment): pull-down; 10 pmol GST-tagged Dpb11 with 32P-labelled protein, no DNA; GST-binding buffer (40 mM Tris-HCl pH 7.5, 100 mM NaCl, 0.1 mM EDTA, 10% glycerol, 0.1% Triton X-100, 1 mM DTT, 0.1 mg/ml BSA), 25°C 1 h; glutathione Sepharose, two washes; SDS-PAGE and phosphorimaging
Conditions in all cases: both partners purified

For one assay, the target named is T1, GST-Dpb11-wild-type.
The assay “GST-Dpb11-m1,2,3,5,ΔC” deals with B3.
For assay [1], the target named is T2, Mcm2-7 complex with a PKA tag at the N-terminus of Mcm2 (budding yeast, UniProt P29469 1-868; P24279 1-971; P30665 1-933; P29496 1-775; P53091 1-1017; P38132 …, 32P-phosphate on the PKA tag).
T2 construct: Mcm2, budding yeast; Mcm3, budding yeast; Mcm4, budding yeast; Mcm5, budding yeast; Mcm6, budding yeast; Mcm7, budding yeast (named only within 'Mcm2-7'); not shown: PKA tag, N-terminal, kept; copies: + + + + +

Assay [2] concerns the target B2.

As to B1, the binding result with GST-Dpb11-wild-type and with GST-Dpb11-m1,2,3,5,ΔC was “binds” throughout.

Consider B2, for which the binding result in the assay with GST-Dpb11-wild-type is given as “binds”.

For B3, the binding result in assay [1] and in assay [2] was “binds” in each case.
